Consider four molecules from publication PMC4571279 (2015).

As usually defined, the koff is the first-order rate constant of dissociation. What is called Kd is the constant that tells how readily two partners part at equilibrium.

Experiment [1] has as its target recombinant MERS-CoV S1 protein (MERS-CoV). Kind of experiment: SPR. (In general: Surface plasmon resonance follows binding to a sensor surface in real time, without labels.)
Experiment [2] shares this target. Kind of experiment: SPR. This is another data set of the same source.

B1: IgG1 m336-gL (all light-chain somatic mutations reverted to germline) (antibody, V domains shown)
VH: QVQLVQSGAEVKKPGSSVKVSCKASGGTFSSYAISWVRQAPGQGLEWMGGIIPIFGTASYAQKFQGRVTITADKSTSTAYMELSSLRSEDTAVYYCARVGYCSSTSCNRGAFDIWGQGTMVTVSS
VL: DIQMTQSPSSLSASVGDRVTITCRASQGIRNDLGWYQQKPGKAPKRLIYAASSLQSGVPSRFSGSGSGTEFTLTISSLQPEDFATYYCLQHNSYPLTFGGGTKVEIK
With B1, the koff in experiment [1] worked out at 0.000545 s⁻¹. Also, the Kd in experiment [2] came to 25.2 nM.

B2: IgG1 m336-gL-FR (light-chain framework somatic mutations reverted to germline) (antibody, V domains shown)
VH: QVQLVQSGAEVKKPGSSVKVSCKASGGTFSSYAISWVRQAPGQGLEWMGGIIPIFGTASYAQKFQGRVTITADKSTSTAYMELSSLRSEDTAVYYCARVGYCSSTSCNRGAFDIWGQGTMVTVSS
VL: DIQMTQSPSSLSASVGDRVTITCRASQGIRNDLGWYQQKPGKAPKRLIYAASSLQSGVPSRFSGSGSGTEFTLTISSLQPEDFATYYCQQLNSYPLTFGGGTKVEIK
Take B2: the koff in experiment [1] worked out at 0.000769 s⁻¹. In experiment [2], the Kd was 15.7 nM.

B3: IgG1 m336 (antibody, V domains shown)
VH: QVQLVQSGAEVKKPGSSVKVSCKASGGTFSSYAISWVRQAPGQGLEWMGGIIPIFGTASYAQKFQGRVTITADKSTSTAYMELSSLRSEDTAVYYCARVGYCSSTSCNRGAFDIWGQGTMVTVSS
VL: DIQLTQSPSSLSASVGDRVTITCRASQGIRNDLGWYQQKPGKAPKLLIYAASSLQSGVPSRFSGSGSGTDFTLTISSLQPEDFATYYCQQLNSYPLTFGGGTKVEIK
B3: the koff in experiment [1] stood at 0.000955 s⁻¹. Further, the dissociation constant Kd in experiment [2] is 1.49 nM.

B4: IgG1 m336-gH (heavy-chain somatic mutation reverted to germline) (antibody, V domains shown)
VH: QVQLVQSGAEVKKPGSSVKVSCKASGGTFSSYAISWVRQAPGQGLEWMGGIIPIFGTANYAQKFQGRVTITADKSTSTAYMELSSLRSEDTAVYYCARVGYCSSTSCNRGAFDIWGQGTMVTVSS
VL: DIQLTQSPSSLSASVGDRVTITCRASQGIRNDLGWYQQKPGKAPKLLIYAASSLQSGVPSRFSGSGSGTDFTLTISSLQPEDFATYYCQQLNSYPLTFGGGTKVEIK
Turning to B4, in experiment [1], the koff came out at 0.000329 s⁻¹. For the same molecule, in experiment [2], the Kd turned out to be 0.239 nM.
